Source: US20230331848A1 (BIOSION, published 2023)

T1: full length mouse PD-1 expressed on 293F-mouse PD-1 cells (mouse, UniProt Q02242 25-288)
T1 construct: also called cell surface mouse PD-1
T1 sequence: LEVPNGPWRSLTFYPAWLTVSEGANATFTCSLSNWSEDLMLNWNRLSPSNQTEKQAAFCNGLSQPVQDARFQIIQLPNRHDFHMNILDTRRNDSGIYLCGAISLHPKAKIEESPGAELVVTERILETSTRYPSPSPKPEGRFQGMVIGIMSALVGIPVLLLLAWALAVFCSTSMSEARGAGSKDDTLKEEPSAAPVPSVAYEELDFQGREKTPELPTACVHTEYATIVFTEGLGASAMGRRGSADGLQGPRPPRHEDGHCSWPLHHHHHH

T2: recombinant mouse PD-1-his protein (Cat#:50124-M08H, Sino Biological Inc) (mouse, UniProt Q02242 25-167)
T2 construct: Bought protein used in Biacore and indirect ELISA; not shown: his tag
T2 sequence (looked up): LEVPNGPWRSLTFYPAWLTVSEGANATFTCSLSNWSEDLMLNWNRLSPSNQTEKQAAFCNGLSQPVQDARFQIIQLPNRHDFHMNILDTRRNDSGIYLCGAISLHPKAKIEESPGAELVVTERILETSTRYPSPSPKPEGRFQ


What was measured:
[1] = molecular target: T1, full length mouse PD-1 expressed on …; experiment: cell-based binding FACS on 293F-mouse PD-1 cells (MFI); unit from the axis 'Con of mAb, nM.'
Procedure: The binding activities of the mouse anti-PD-1 antibodies to mouse PD-1s expressed on cell surface were tested by flow cytometry (FACS), using Biosion in-house prepared 293F-mouse PD-1 cells expressing full length mouse PD-1 (SEQ ID NO.: 27) on cell membrane. The 293F-mouse PD-1 cells were prepared by transfecting 293F cells with a PCMV-T-P plasmid inserted with mouse PD-1 coding sequence between EcoR I and XbaI sites, following the instruction of lipofectamine 3000 transfection reagent (Thermo Fisher).
In specific, the 293F-mouse PD-1 cells and GS-J2/PD-1 cells were respectively harvested from cell culture flasks, washed twice and re-suspended in PBS containing 2% v/v Fetal Bovine Serum (FACS buffer). Then, 2×10⁵ cells per well were incubated in 96 well-plates with 100 μl of the anti-PD1 antibodies or controls at various concentrations for 40 minutes on ice. […] Following an incubation of 40 minutes at 4° C. in dark, cells were washed three times and re-suspended in FACS buffer. Fluorescence was measured using a Becton Dickinson FACS Canto II-HTS equipment and plotted against antibody concentrations. Data was analyzed using GraphPad Prism software and EC₅₀ values were reported.

[2] = molecular target: T3, in house made human PD-1-Fc protein (human, biotin-labeled (sites not given)); experiment: blocking FACS: biotin human PD-1-Fc + antibody on GS-C2/PD-L1 cells (competitor: cell-surface human PD-L1)
T3 construct: also called biotin-labeled human PD-1-Fc

[3] = molecular target: T3, in house made human PD-1-Fc protein; experiment: competitive ELISA: antibody pre-mixed with biotin-labeled human PD-1-Fc, added to coated human PD-L1-Fc (blocked ligand); unit from the axis 'Con of mAb, nM.'
Procedure: The activities of the anti-PD1 antibodies of the disclosure to block PD-L1-PD1 binding were measured in a competitive ELISA.
Briefly, 100 μl human PD-L1-Fc protein (prepared in-house with SEQ ID NO: 28) at 2 μg/mL in carbonate/bicarbonate buffer (pH 9.6) was coated on 96-well micro plates overnight at 4° C., Plates were washed with wash buffer (PBS+0.05% w/v Tween-20, PBST), and blocked with 5% w/v non-fatty milk in PBST for 2 hours at 37° C. […] After incubation at 37° C. for 40 minutes, plates were washed using wash buffer. […] Plates were washed again using wash buffer. Finally, TMB was added and the reaction was stopped using 1M H₂SO₄. The absorbance was read on a microplate reader using dual wavelength mode with 450 nm for TMB and 630 nm as the reference wavelength, then the OD (450-630) values were plotted against antibody concentrations. Data was analyzed using Graphpad Prism software and IC₅₀ values were reported.

[4] = molecular target: T4, cynomolgus PD-1-his protein (Cat#:PD1-05223, Acro biosystems Inc.) (cynomolgus, UniProt B0LAJ3 25-170); experiment: indirect ELISA on coated cynomolgus PD-1-his; unit from the axis 'Con of mAb, nM.'
T4 construct: Bought protein used in Biacore and indirect ELISA; also called monkey PD-1; Cyno PD-1
Procedure: (§1) Briefly, 96-well micro plates were coated with 100 μl 2 μg/ml mouse PD-1-his (Cat#:50124-M08H, Sino Biological Inc) or 2 μg,/ml cynomolgus PD-1-his (Cat#:PD1-05223, Acro biosystems Inc.) in carbonate/bicarbonate buffer (pH 9.6) for 2 hours at 37° C. Plates were washed once with wash buffer (PBST, PBS+0.05% Tween-20) and then blocked with 200 μl blocking buffer (5% w/v non-fatty milk in PBST) for 2 hours at 37° C. […] ELISA plates were washed 4 times and incubated with Peroxidase AffiniPure goat anti-mouse IgG, Fcγ Fragment Specific (1:5000 dilution in PBST buffer, Cat#:115-035-071, Jackson ImmunoResearch Laboratories, Inc., 100 μl/well) or Peroxidase AffiniPure F(ab′)₂ Fragment Goat Anti-Human IgG, Fcγ fragment specific (Cat#:109-036-098, Jackson ImmunoResearch, for the controls) for 40 minutes at 37° C. After a final wash, plates were incubated with 100 μl/well TMB (Cat#:TMB-S-002, innoreagents) at room temperature. The reaction was stopped 3-10 minutes later with 50 μl/well 1M H₂SO₄, and the absorbance was read on a microplate reader using dual wavelength mode with 450 nm for TMB and 630 nm as the reference wavelength. Then the OD (450-630) values were plotted against antibody concentrations. Data was analyzed using GraphPad Prism software and EC₅₀ values were reported.

[5] = molecular target: T2, recombinant mouse PD-1-his protein …; experiment: indirect ELISA on coated mouse PD-1-his
Procedure: as §1

EC50 [1] [nM]	IC50 [2] [nM]	IC50 [3] [nM]	EC50 [4] [nM]	binding result [5]	Binder
1.27	0.42	0.45			mouse anti-PD-1 monoclonal antibody E1A9C8A7 (antibody, V domains shown, Hybridoma-derived mouse mAb purified on Protein A; also called Mouse E1A9C8A7) VH: QVQLQQSGAEVVRPGVSVRISCKGSGYTFSDYVMHWMKQSHGESLEWIGVISTYHIPAVYNQKFKGKATMTVDKSSSTVYLELARLTSEDSAIYYCAREVYGDSYYFDVWGAGTTVTVSS VL: DVLMTQIPLSLPVSLGDQVSISCRSSQSIVHSNGNTYLEWYLQKPGQSPKLLIYKVSNRFSGVPDRFSGSGSGTDFTLKISRVEAEDLGVYYCFQGSHVPYTFGGGTKLEIK
0.87		0.428			mouse anti-PD-1 monoclonal antibody E2G4E10B7 (antibody, V domains shown, Hybridoma-derived mouse mAb; also called Mouse E2G4E10B7) VH: QVQLQQSGAELVRPGVSVKISCKGSGYTFTDYVMHWVRQSHAKSLEWIGVISTHFGDGVYNQKFKGKATMTVDKSSSTAYMELARLTSEDSAIYYCAREVYGDSWYFDVWGAGTTVTVSS VL: DVLMTQTPLSLPVSLGDQASISCRSSQSLVHSDGNTYLEWYLQKPGQSPKLLIYKVSNRFSGVPDRFSGSGSGTDFTLKISRLEAEDLGVYYCFQGSHVPYTFGGGTKLEIK
			0.142	no binding (tested: 66.7 nM)	mouse anti-PD-1 monoclonal antibody E1G5D1H1 (antibody, V domains shown, Hybridoma-derived mouse mAb; also called EIG5D1H1; E1G5DIH1) VH: EVQLVESGGGLVKPGGSLKLSCAASGFTFSDFYMYWVRQTPEKRLEWVATISNSGTQTYYLDSVKGRFTISRDNAKNNLYLQMSSLKSEDTAMYYCARDYYRYDSWYFDVWGAGTTVTVSS VL: DIVLTQSPASLAVSQGQRATISCRASESVDFYGTSLMQWFQLKPGQPPKLLIYAASNVESGVPARFSGSGSGTNFSLNIHPVEEDDIAMYFCQQSRKVPWTFGGGTNLEIK
